Where a chain is given by its changes, count along the chain named.

For test [1], the target named is T1, human PCSK9 (PCSK9 antigen, SEQ ID NO. 53) (human, UniProt A8T644 31-152; Q8NBP7 153-692, Biotin-labelled on amines in the MSD-SET and sorting experiments; positions not given.).
T1 construct: Biotin-labelled in MSD-SET; also called PCSK9-WT; PCSK9 protein
The test is described as follows: flow cytometry, PCSK9 left on CHO-LDLR cells (anti-His-FITC) after premix with 1000 nM antibody.

Test [2] has as its target T1, human PCSK9 (PCSK9 antigen, SEQ ID NO. …). The test is described as follows: BLI (ForteBio), IgG on AHQ sensor, 100 nM antigen. (BLI is a label-free optical method that tracks binding on a fibre tip over time.)
Test [3] concerns the target T2, murine PCSK-9 (murine, UniProt Q80W65 35-694).
T2 construct: also called mouse PCSK9
The test is described as follows: BLI (ForteBio), IgG on AHQ sensor, 100 nM antigen.

Test [4] has as its target T1, human PCSK9 (PCSK9 antigen, SEQ ID NO. …). The test is described as follows: flow cytometry, PCSK9 left on CHO-LDLR cells (anti-His-FITC) after premix with 10 nM antibody. (In general: Flow cytometry measures light scatter and fluorescence of single cells or particles in a stream.)
Test [5] has the same target. Kind of test: flow cytometry, PCSK9 left on CHO-LDLR cells (anti-His-FITC) after premix with 100 nM antibody.
The target is the same in test [6]. Kind of test: flow cytometry, PCSK9 left on CHO-LDLR cells (anti-His-FITC) after premix with 0.1 nM antibody.
The target is the same in test [7]. The test is described as follows: flow cytometry, PCSK9 left on CHO-LDLR cells (anti-His-FITC) after premix with 1 nM antibody.
For test [8] the target is unchanged. Kind of test: cell-based or functional assay.
The target is the same in test [9]. The test is described as follows: cell-based or functional assay. The source holds these as a separate data set.
For test [10] the target is unchanged. The test is described as follows: ForteBio method and MSD-SET assay, as the sentence says; end tied to ADI-10085 by Table 2.
Test [11] shares this target. The test is described as follows: MSD-SET, Fab with biotin-PCSK9 in solution, IgG on plate, pH 7.4.
Test [12] has as its target T2, murine PCSK-9. Described as above.
In test [13] the target is T1, human PCSK9 (PCSK9 antigen, SEQ ID NO. …). The test is described as follows: MSD-SET, Fab with biotin-PCSK9 in solution, IgG on plate, pH 6.0.
Throughout, for BODIPY-LDL uptake by HepG2 cells, fluorescence, 16.8 nM, replicate 1: unit not given here.
Throughout, for BODIPY-LDL uptake by HepG2 cells, fluorescence, 16.8 nM, replicate 2: unit not given here.
Throughout, for BODIPY-LDL uptake by HepG2 cells, fluorescence, 4.2 nM, replicate 1: unit not given here.
Throughout, for BODIPY-LDL uptake by HepG2 cells, fluorescence, 4.2 nM, replicate 2: unit not given here.
Throughout, for BODIPY-LDL uptake by HepG2 cells, fluorescence, 66.7 nM, replicate 1: unit not given here.
Throughout, for BODIPY-LDL uptake by HepG2 cells, fluorescence, 66.7 nM, replicate 2: unit not given here.

B1: ADI-10089 (antibody, human IgG2, kappa, V domains shown)
VH: QLQLQESGPGLVKPSETLSLTCTVSGGSIGSSSYYWTWIRQPPGKGLEWIGSINYRGSTYYNPSLKSRVTISVDTSKNQFSLKLSSVTAADTAVYYCARENSGVVPAAGPNWFDPWGQGTLVTVSS
VL: EIVLTQSPATLSLSPGERATLSCRASQSVSSYLAWYQQKPGQAPRLLIYDASNRATGIPARFSGSGSGTDFTLTISSLEPEDFAVYYCQQRRNWFTFGGGTKVEIKR
notes: IgG
What is called Kd is the equilibrium constant for the complex coming apart. A high value points to weaker binding. Turning to B1, the “Fluorescence Signal Value” in test [1] is 5330. For the same molecule, the Kd in test [2] was found to be 0.311 nM. In addition, the Kd with murine PCSK-9 [3] was 0.589 nM. In addition, the “Fluorescence Signal Value” in test [4] stood at 5640. The “Fluorescence Signal Value” in test [5] was 5140. For the same molecule, the “Fluorescence Signal Value” in test [6] is 6890. In [7], the “Fluorescence Signal Value” was 6500. In addition, the “fluorescence of BODIPY-LDL in HepG2 cells against no anti-PCSK9 antibody” value in [8] is around 2 times. Further, in test [9], the “BODIPY-LDL uptake by HepG2 cells, fluorescence, 4.2 nM, replicate 1” value stood at 0.38; the “BODIPY-LDL uptake by HepG2 cells, fluorescence, 4.2 nM, replicate 2” value came out at 0.399; the “BODIPY-LDL uptake by HepG2 cells, fluorescence, 16.8 nM, replicate 1” value is 0.712; the “BODIPY-LDL uptake by HepG2 cells, fluorescence, 16.8 nM, replicate 2” value was found to be 0.706. In test [9], the “BODIPY-LDL uptake by HepG2 cells, fluorescence, 66.7 nM, replicate 1” value was 0.774 and the “BODIPY-LDL uptake by HepG2 cells, fluorescence, 66.7 nM, replicate 2” value was 0.741.

B2: ADI-10085 Fab (Fab, V domains shown)
VH: B1 VH with G30V, T37A, R56K, D114G
VL: B1 VL
Regarding B2, the Kd in test [10] amounted to 0.004 nM; in test [11], 0.0042 nM; with murine PCSK-9 [12] it was 0.041 nM; in [13], 0.0059 nM.

(Values after patent publication US20200087416A1 (Innovent, published 2020).)
